In assay [1] the target is T1, human IgE with the M1′ sequence (long form of membrane IgE) expressed on transduced BJAB or Daudi cells (human, UniProt P01854 116-546).
T1 construct: Full-length heavy and light chains of the U266 IgE B cell receptor, retrovirally expressed; also called IgE/M1′; IgE-M1′
Kind of assay: competitive ECL binding on BJAB-IgE/M1′ cells vs biotinylated 26A11 or 47H4, 1st IC50 column.

A further assay concerns the target T2, M1' peptide 2.
T2 construct: see f1
T2 peptide: TVQRAVSVNPGLAGG
Kind of assay: ELISA on coated antigen, relative OD450/650. As to the method:
(§1) 15 peptides were generated spanning the sequence surrounding and including human M1′ (Clifford Quan) (FIG. 5A). Peptides were resuspended in either dH20 or 50% DMSO. […] 0.05% Tween-20, 10 ppm Proclin., 0.2% BgG, 0.25% Chaps, 5 mM EDTA, 0.35M NaCl]. […] Plates were then incubated for 2 hours at room temperature. Murine antibody plates were washed 3 times and then anti-mouse IgG1-Biotin (BD Biosciences (A85-1) #553441) was added (1:10,000, 100 μl per well) and incubated for 1 hour at RT. Following 3 washes, SA-HRP (BD Biosciences #554066) was added (1:20,000, 100 μl per well) and incubated for 1 hour. Human IgG1 antibody plates were washed as before and anti-hulgG.Fc-HRP (Jackson ImmunoResearch (#109-036-098)) was added (1:10,000, 100 μl per well) and incubated for 1 hour at RT. Once secondary incubations were complete, plates were washed 6 times and TMB substrate (BD OptEIA #555214) was added (100 μl per well). The substrate-HRP reaction was stopped with 1M H3PO4 after ˜4 minutes. Plates were then read at 450/650. Data was represented as relative OD (OD₄₅₀/CD650).

The next assay addresses T3, M1' peptide 12.
T3 construct: see f1
T3 peptide: ADWPGPPELDVCVEE
The experiment in a line: ELISA on coated antigen, relative OD450/650. As to the method:
as §1
For orientation: An ELISA detects its analyte on a solid surface through an enzyme-linked reagent.

The next assay addresses T4, M1' peptide 13.
T4 construct: see f1
T4 peptide: PPELDVCVEEAEGEA
The experiment in a line: ELISA on coated antigen, relative OD450/650. As to the method:
as §1

A further assay addresses T5, M1' peptide 14.
T5 construct: see f1
T5 peptide: VCVEEAEGEAPWTWT
Kind of assay: ELISA on coated antigen, relative OD450/650. As to the method: as §1

In a further assay the target is T6, M1′ peptide 7 (human).
T6 peptide: GQQQGLPRAAGGSVP
The experiment in a line: ELISA on coated antigen, relative OD450/650. As to the method: as §1

In another assay the target is T7, M1' peptide 3.
T7 construct: see f1
T7 peptide: GLAGGSAQSQRAPDR
The experiment in a line: ELISA on coated antigen, relative OD450/650. As to the method:
as §1

A further assay addresses T8, M1' peptide 15.
T8 construct: see f1
T8 peptide: AEGEAPWTWTGLCIF
Kind of assay: ELISA on coated antigen, relative OD450/650. As to the method: as §1

A further assay concerns the target T9, M1' peptide 9.
T9 construct: see f1
T9 peptide: GGSVPHPRCHCGAGR
Kind of assay: ELISA on coated antigen, relative OD450/650. As to the method: as §1

A further assay concerns the target T10, M1′ peptide 8 (human).
T10 peptide: PRAAGGSVPHPRCH
The experiment in a line: ELISA on coated antigen, relative OD450/650. As to the method:
as §1

The target in the next assay is T11, M1′ peptide 4 (human).
T11 peptide: SAQSQRAPDRVLCHS
Kind of assay: ELISA on coated antigen, relative OD450/650. As to the method:
as §1

Another assay addresses T12, M1' peptide 1.
T12 peptide: ASPSQTVQRAVSVNP
The experiment in a line: ELISA on coated antigen, relative OD450/650. As to the method: as §1

Another assay concerns the target T13, M1' peptide 11.
T13 construct: see f1
T13 peptide: CGAGRADWPGPPELD
The experiment in a line: ELISA on coated antigen, relative OD450/650. As to the method:
as §1

Another assay has as its target T14, M1' peptide 6.
T14 construct: see f1
T14 peptide: VLCHSGQQQGLPRAA
Kind of assay: ELISA on coated antigen, relative OD450/650. As to the method: as §1

For a further assay, the target named is T15, M1' peptide 10.
T15 construct: see f1
T15 peptide: HPRCHCGAGRADWPG
The experiment in a line: ELISA on coated antigen, relative OD450/650. As to the method: as §1

A further assay concerns the target T16, M1′ peptide 5 (human).
T16 peptide: RAPDRVLCHSGQQQG
The experiment in a line: ELISA on coated antigen, relative OD450/650. As to the method:
as §1

Assay [2] addresses T17, human IgE CH3-CH4-M1′/Fc fusion protein (human).
T17 construct: also called M1′ (immobilized)
The experiment in a line: SPR Biacore A100, M1′ immobilized. (SPR reads the build-up and loss of mass on a sensor chip optically.)

Assay [3] concerns the target T1, human IgE with the M1′ sequence (long …). Kind of assay: Scatchard, iodinated antibody on IgE/M1′ cells.
The target is the same in assay [4]. Kind of assay: Scatchard analysis on cells expressing human IgE/M1′. As to the method: The BJAB or Daudi cells expressing various forms of IgE with or without M1′ (Human, Rhesus, Cyno) were prepared for binding in cold Binding buffer composed of base media, with 10 mM HEPES pH 7.4, and 2% FBS as well as 40 ug/ml human IgG. Cells are diluted to concentration of 1.7×10⁶ cells/ml, and kept on ice until they are added to the assay. The proteins/antibodies are iodinated with the Iodogen method. Various concentrations of cold protein are prepared in triplicate, using a 1:2 dilution starting with the saturation concentration and ending at a concentration of zero, with a total of 14 concentrations. Hot protein of a single concentration is added to all dilutions compete with the cold protein. Lastly the cells are added to the hot and cold protein mixture, 250,000 cells per sample were used. Assay is kept at 4° C. for 4 hours, shaking. Each sample is then collected and filtered on membrane, washed at least 3 times with binding buffer, allowed to dry and then counted for 1 minute using Perkin Elmer Wizard 1470 Auto Gamma Counter.

In assay [5] the target is T17, human IgE CH3-CH4-M1′/Fc fusion protein. Kind of assay: SPR Biacore 2000, IgG immobilized, M1′-Fc analyte.
The target of assay [6] is T1, human IgE with the M1′ sequence (long …). The experiment in a line: competitive ECL binding on BJAB-IgE/M1′ cells vs biotinylated 26A11 or 47H4, 2nd IC50 column.
Assay [7] has as its target T18, cyno IgE/M1′ expressed on transduced Daudi cells (human IgE/primate M1′ cassette, cynomolgus) (cynomolgus monkey).
T18 construct: The construct is described as a 'human IgE/primate M1′ cassette'; also called Cyno M1′
T18 chain: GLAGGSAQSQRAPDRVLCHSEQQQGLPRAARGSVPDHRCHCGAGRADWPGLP
The experiment in a line: Scatchard analysis on cells expressing cyno IgE/M1′.

The target in assay [8] is T19, rhesus IgE/M1′ expressed on transduced Daudi cells (human IgE/primate M1′ cassette, rhesus) (rhesus monkey).
T19 construct: The construct is described as a 'human IgE/primate M1′ cassette'; also called Rhesus M1′
T19 chain: T18 chain with R38H
The experiment in a line: Scatchard analysis on cells expressing rhesus IgE/M1′.

For assay [9], the target named is T17, human IgE CH3-CH4-M1′/Fc fusion protein. Kind of assay: SPR Biacore 2000, M1′-Fc immobilized.

The IC50 is the concentration at which inhibition is half-maximal. A high value points to lower potency. The Kd is a measure of binding affinity in units of concentration.

Changes are numbered by the printed parent chain.

T1 sequence (P01854 116-546 I515L limits assumed): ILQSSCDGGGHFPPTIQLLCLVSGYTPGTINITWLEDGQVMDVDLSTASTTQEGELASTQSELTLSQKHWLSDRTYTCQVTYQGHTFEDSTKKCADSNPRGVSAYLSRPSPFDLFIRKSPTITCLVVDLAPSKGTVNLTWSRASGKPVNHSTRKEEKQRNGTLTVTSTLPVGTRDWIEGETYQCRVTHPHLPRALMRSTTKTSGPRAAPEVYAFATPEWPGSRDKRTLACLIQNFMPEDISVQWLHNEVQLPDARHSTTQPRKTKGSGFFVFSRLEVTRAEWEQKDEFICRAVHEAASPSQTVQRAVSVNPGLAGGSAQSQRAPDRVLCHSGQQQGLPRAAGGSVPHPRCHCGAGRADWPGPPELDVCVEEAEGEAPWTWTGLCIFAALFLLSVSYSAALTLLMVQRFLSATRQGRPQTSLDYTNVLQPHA
T17 sequence (chain, as listed by the source limits assumed): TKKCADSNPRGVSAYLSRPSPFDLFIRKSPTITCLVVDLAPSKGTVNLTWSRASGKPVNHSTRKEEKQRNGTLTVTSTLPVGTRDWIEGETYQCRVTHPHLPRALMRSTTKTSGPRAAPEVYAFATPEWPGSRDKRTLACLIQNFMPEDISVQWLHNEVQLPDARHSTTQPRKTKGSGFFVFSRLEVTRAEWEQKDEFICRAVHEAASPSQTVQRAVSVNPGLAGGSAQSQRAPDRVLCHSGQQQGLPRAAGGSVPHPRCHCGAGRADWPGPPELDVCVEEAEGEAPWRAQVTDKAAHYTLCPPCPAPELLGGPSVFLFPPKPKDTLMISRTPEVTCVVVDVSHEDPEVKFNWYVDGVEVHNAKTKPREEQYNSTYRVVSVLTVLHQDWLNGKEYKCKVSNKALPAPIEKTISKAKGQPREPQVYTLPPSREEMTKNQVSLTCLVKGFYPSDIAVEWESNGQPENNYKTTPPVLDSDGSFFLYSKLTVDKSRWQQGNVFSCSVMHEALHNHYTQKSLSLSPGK

B1: humanized anti-IgE/M1′ antibody 7A6.v1 (antibody, V domains shown)
VH: EVQLVESGGGLVQPGGSLRLSCAASGYTFIDYEMHWVRQAPGKGLEWVGAIDPETGTTAYNQKFKGRFTISADTSKNTAYLQMNSLRAEDTAVYYCTRLRPHYDYDNAMDSWGQGTLVTVSS
VL: DIQMTQSPSSLSASVGDRVTITCKSSQTLLYSTNQKNYLAWYQQKPGKAPKLLIYWASTRESGVPSRFSGSGSGTDFTLTISSLQPEDFATYYCQQYYSYPYTFGQGTKVEIKR
notes: direct CDR graft, huIgG1; also called 7A6v1 huIgG1; 7A67v1 [sic]
Regarding B1, the IC50 in assay [1] was found to be 39 nM. For the same molecule, the binding result with M1' peptide 2, with M1' peptide 12, in the assay with M1' peptide 13, with M1' peptide 14, with M1′ peptide 7 and with M1' peptide 3 was “no binding” throughout. For the same molecule, the binding result with M1' peptide 15 is recorded as “no binding”; with M1' peptide 9, “no binding”; with M1′ peptide 8, “no binding”; with M1′ peptide 4, “binds”; with M1' peptide 1, “no binding”; with M1' peptide 11 it was “no binding”. Moreover, the results for the binding result in the assay with M1' peptide 6, with M1' peptide 10 and with M1′ peptide 5 were “no binding”, “no binding” and “binds”, respectively. For the same molecule, in [2], binding was put at a Kd of 15 nM.

B2: murine anti-IgE/M1′ antibody 7A6 (antibody, V domains shown)
VH: QVQLQQSGAELVRPGASVTLSCKASGYTFIDYEMHWVKQTPVHGLEWIGAIDPETGTTAYNQKFKGKATLTAAKSSSTAYMELRSLTSEDSAVYYCTRLRPHYDYDNAMDSWGQGTTLTVSS
VL: DIVMSQSPSSLTVSVGEKVTLSCKSSQTLLYSTNQKNYLAWYQQKPGQSPKLLIYWASTRESGVPDRFTGSGSGTDFTLTISSVKAEDLAVYYCQQYYSYPYTFGGGTKVEIKR
notes: mIgG1 hybridoma antibody; also called mu7A6; 7A6 mIgG1
B2: the results for the Kd in assay [3], in [2] and in [4] were 0.6 nM, 4.5 nM and 0.64 nM, respectively. Also, the IC50 in assay [1] came out at 52 nM. Also, the binding result in the assay with M1′ peptide 4 and with M1′ peptide 5 was “binds” in each case.

B3: humanized anti-IgE/M1′ antibody 26A11.v6 (antibody, V domains shown)
VH: EVQLVESGGGLVQPGGSLRLSCAASGYTFTDYYIMWVRQAPGKGLEWVGDINPNNYDTSYNQKFKGRFTISADTSKNTAYLQMNSLRAEDTAVYYCASKAYWGQGTLVTVSS
VL: DIQMTQSPSSLSASVGDRVTITCRSSQDISNYLNWYQQKPGKAPKLLIYSTSRLHSGVPSRFSGSGSGTDFTLTISSLQPEDFATYYCQQGHTLPWTFGQGTKVEIKR
notes: huIgG1; also called 26A11v6 huIgG1
With B3, the Kd stood at 8.3 nM in [5], 2.6 nM in assay [2] and 1.85 nM in [4]. The IC50 turned out to be 11 nM in assay [1] and 23 nM in assay [6]. The binding result with M1' peptide 2 is “no binding”; with M1' peptide 12, “no binding”; with M1' peptide 13, “no binding”; with M1' peptide 14, “no binding”; in the assay with M1′ peptide 7 it was “binds”; with M1' peptide 3, “no binding”. For the same molecule, the binding result is listed as “no binding” with M1' peptide 15; “no binding” with M1' peptide 9; “binds” with M1′ peptide 8; “no binding” with M1′ peptide 4; “no binding” with M1' peptide 1; “no binding” with M1' peptide 11. Also, the binding result in the assay with M1' peptide 6, with M1' peptide 10 and with M1′ peptide 5 was “no binding” throughout.

B4: humanized anti-IgE/M1′ antibody 47H4.v5 (antibody, V domains shown)
VH: EVQLVESGGGLVQPGGSLRLSCAASGFTFSDYGIAWVRQAPGKGLEWVAFISDLAYTIYYADTVTGRFTISRDNSKNTLYLQMNSLRAEDTAVYYCARDNWDAMDYWGQGTLVTVSS
VL: DIQMTQSPSSLSASVGDRVTITCRSSQSLVHNNANTYLHWYQQKPGKAPKLLIYKVSNRFSGVPSRFSGSGSGTDFTLTISSLQPEDFATYYCSQNTLVPWTFGQGTKVEIKR
notes: huIgG1; also called 47H4v5 huIgG1; 47H5 v.5
Regarding B4, the Kd turned out to be 2.5 nM in [7], 1.3 nM in assay [8], 23 nM in assay [9] and 1.5 nM in [4]. This molecule registered an IC50 in assay [6] of 60 nM. Also, the binding result with M1' peptide 2, with M1' peptide 12, with M1' peptide 13, with M1' peptide 14, in the assay with M1′ peptide 7 and with M1' peptide 3 was “no binding” throughout. Also, the binding result in the assay with M1' peptide 15 is “no binding”; in the assay with M1' peptide 9, “no binding”; with M1′ peptide 8, “no binding”; with M1′ peptide 4 it was “binds”; with M1' peptide 1, “no binding”; with M1' peptide 11, “no binding”. Further, the binding result in the assay with M1' peptide 6, with M1' peptide 10 and with M1′ peptide 5 was “no binding” throughout.

Source of the values: patent US20120149881A1 (Genentech, published 2012).
